Reference: patent US20180086826A1

How the values were obtained:
[1] = biological target: I83E trastuzumab memAb Fab; assay: SPR, 37 °C
[2] = biological target: I83E trastuzumab memAb Fab; assay: SPR, 37 °C; against the original meditope on the original trastuzumab memAb Fab
[3] = biological target: meditope-enabled Trastuzumab Fab (original, Ile83); assay: as above
[4] = biological target: meditope-enabled Trastuzumab Fab (original, Ile83); assay: SPR, 37 °C, immobilized memAb
[5] = biological target: HER2 (UniProt P04626); assay: SPR, immobilized HER2, 25 °C
[6] = biological target: meditope-enabled Trastuzumab Fab (original, Ile83); assay: SPR, 37 °C

Kd [1] [nM] | τ1/2 [1] [s] | fold increase in affinity [2] [fold] | fold increase in affinity [3] [fold] | Kd [4] [nM] | τ1/2 [4] [s] | Kd [5] [nM] | koff [1] [s⁻¹] | τ1/2 [6] [s] | Substance
0.86 | 2400 | 1160 | 25 | 41 | 60 | – | – | – | 5-diphenyl meditope (peptide)
– | – | – | – | – | – | 0.044 | – | – | I83E trastuzumab memAb Fab
38 | 280 | 25 | – | 1000 | – | – | 0.0025 | 16 | original meditope (peptide)
